This test concerns the target SNAP-mGluR3 (rat), P31422. The test can be described thus: single-molecule pulldown (SiMPull) with subunit counting by photobleaching steps; surface receptors labelled with BG-LD555 on HEK 293T cells, lysed in 1.2% IGEPAL, diluted in 0.1% IGEPAL, immobilised by biotinylated anti-HA antibody on a PEG-passivated coverslip, TIRF imaging; SNAP labelling efficiency ~80%; background two-step bleaching ~5-10%. The following applies: remark: other sources report otherwise.

B1: SNAP-mGluR3, P31422 23-879 (receptor)
chain: LGDHNFMRREIKIEGDLVLGGLFPINEKGTGTEECGRINEDRGIQRLEAMLFAIDEINKDNYLLPGVKLGVHILDTCSRDTYALEQSLEFVRASLTKVDEAEYMCPDGSYAIQENIPLLIAGVIGGSYSSVSIQVANLLRLFQIPQISYASTSAKLSDKSRYDYFARTVPPDFYQAKAMAEILRFFNWTYVSTVASEGDYGETGIEAFEQEARLRNICIATAEKVGRSNIRKSYDSVIRELLQKPNARVVVLFMRSDDSRELIAAANRVNASFTWVASDGWGAQESIVKGSEHVAYGAITLELASHPVRQFDRYFQSLNPYNNHRNPWFRDFWEQKFQCSLQNKRNHRQVCDKHLAIDSSNYEQESKIMFVVNAVYAMAHALHKMQRTLCPNTTKLCDAMKILDGKKLYKEYLLKINFTAPFNPNKGADSIVKFDTFGDGMGRYNVFNLQQTGGKYSYLKVGHWAETLSLDVDSIHWSRNSVPTSQCSDPCAPNEMKNMQPGDVCCWICIPCEPYEYLVDEFTCMDCGPGQWPTADLSGCYNLPEDYIKWEDAWAIGPVTIACLGFLCTCIVITVFIKHNNTPLVKASGRELCYILLFGVSLSYCMTFFFIAKPSPVICALRRLGLGTSFAICYSALLTKTNCIARIFDGVKNGAQRPKFISPSSQVFICLGLILVQIVMVSVWLILETPGTRRYTLPEKRETVILKCNVKDSSMLISLTYDVVLVILCTVYAFKTRKCPENFNEAKFIGFTMYTTCIIWLAFLPIFYVTSSDYRVQTTTMCISVSLSGFVVLGCLFAPKVHIVLFQPQKNVVTHRLHLNRFSVSGTATTYSQSSASTYVPTVCNGREVLDSTTSSL
modifications: here or on the partner: SNAP tag labelled with BG-LD555; SNAP tag labelled with BG-LD555
On to B1, for which the percent of spots bleaching in two steps was 48.9% and the stoichiometry N (in general, the number of molecules, sites or subunits per partner or assembly) is 2.

These data come from PMC6588349, “Conformational dynamics between transmembrane domains and allosteric modulation of a metabotropic glutamate receptor” (eLife, 2019).
